Results reported in paper PMC12624006.

Molecular target: Lhcp-2 polypeptide of the prasinophyte light-harvesting complex Lhcp (Ostreococcus tauri) (Ostreococcus tauri)
Assay: cryo-EM structure

stoichiometry N: 3
Substance: Lhcp-2 polypeptide of the prasinophyte light-harvesting complex Lhcp (Ostreococcus tauri) (natural protein)
